Assay results published in paper PMC3237428.

Biological target: β-catenin (endogenous in HEK293 cells) (human (endogenous in HEK293)) (UniProt P35222)
Assay: co-IP; reciprocal immunoprecipitation from stable HEK cell lysates with protein A/G agarose, anti-β-catenin antibody or rabbit antibody BsloC; western blot; 0.5% DDM

UniProt P35222, sequence (P35222 whole entry): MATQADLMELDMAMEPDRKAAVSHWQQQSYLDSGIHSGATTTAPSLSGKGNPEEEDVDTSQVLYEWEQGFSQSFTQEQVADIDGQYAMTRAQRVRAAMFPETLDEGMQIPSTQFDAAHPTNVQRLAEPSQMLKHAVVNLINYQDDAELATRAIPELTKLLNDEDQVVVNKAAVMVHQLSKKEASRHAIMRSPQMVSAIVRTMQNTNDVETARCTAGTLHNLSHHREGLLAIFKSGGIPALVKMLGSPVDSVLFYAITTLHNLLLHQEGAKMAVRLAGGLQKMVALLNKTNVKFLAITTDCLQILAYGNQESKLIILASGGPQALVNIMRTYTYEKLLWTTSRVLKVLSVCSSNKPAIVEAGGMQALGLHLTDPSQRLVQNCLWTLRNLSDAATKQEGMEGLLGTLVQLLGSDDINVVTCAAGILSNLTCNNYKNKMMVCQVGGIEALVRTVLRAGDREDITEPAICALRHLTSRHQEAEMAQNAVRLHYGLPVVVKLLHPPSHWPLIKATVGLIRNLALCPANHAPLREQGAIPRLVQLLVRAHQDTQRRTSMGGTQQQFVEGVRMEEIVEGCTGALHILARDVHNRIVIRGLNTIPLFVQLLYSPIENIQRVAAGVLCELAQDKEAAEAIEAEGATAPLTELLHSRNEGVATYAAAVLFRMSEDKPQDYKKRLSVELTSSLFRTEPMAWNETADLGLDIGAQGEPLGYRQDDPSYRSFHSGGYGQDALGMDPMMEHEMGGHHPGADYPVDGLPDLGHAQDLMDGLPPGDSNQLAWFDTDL

- ratio of HSlo in β-catenin immunoprecipitates, wild type HSlo to HSloΔS10 (fold (wild type over HSloΔS10)): 4
Substance: HSloΔS10 (HSlo deletion construct lacking the S10 region) (natural protein)
